Assay results reported in patent publication US20070134249A1 (GENITOPE, published 2007).

Key:
Experiment in all cases: ELISA
[1] = biological target: T1, 913; design: key: 0 = <0.5 OD, 1 = 0.5-1.0 OD, 4 = 1-4 OD
T1 construct: fully human Id protein; also called PIN913
Excerpt: (§1) Before specificity screening, all of the clonal immunogen-positive hybridoma supernatants were re-screened on the immunogen, a non-family member Id protein, and KLH, if animals were immunized with Id protein that has been conjugated KLH. As described above, this screen identifies HC-specific clones but not mAbs against the light chain constant region. Clones identified positive to the immunogen and KLH were […]. Those found positive to the immunogen but not to the non-family member Id protein or KLH were tittered on the immunogen. In addition to normalizing for different binding affinities and concentrations, each hybridoma supernatant was titered on the fully human form of the Id protein used as the immunogen(s) for the V regions. The titer or dilution resulting in an ELISA absorbance of 2.5 to 3 OD after 30 min. incubation time was then used. Hybridoma specificity was determined by screening against available Id proteins expressing the same HV and KV or LV as well as different HV, KV and LV. The final ELISA results are expressed as follows: 0 (<0.5 OD), 1 (0.5-1.0 OD), or 4 (1-4 OD). Positive hybridoma supernatants are categorized according to specificity: anti-Id, anti-constant region (HC, KC or LC), or V region (HV, KV, LV family or family member).
(§2) In general, the fully human Id protein or proteins containing the immunogen V regions were coated onto 96-well ELISA plates at 2.5-5 ug/mL in carbonate buffer pH 9.6 and incubated at 4° C. for up to 14 days. On the day of the ELISA, plates were brought to RT and blocked with Tris-Tween-20, pH 7.6 for 15-60 min. at RT. Following a NaCl and Triton X-100 wash, diluted hybridoma cell culture supernatants were incubated overnight at 4° C. Hybridoma supernatant dilutions ranged from 1:2 to 1:25 and were prepared in PBS with 5% BSA. Plates were washed and incubated with HRP-conjugated goat anti-mouse IgG-specific detecting antibody. A chromogenic substrate (TMB) was used to measure the amount of mouse antibody bound to each well. The reaction was stopped at or before 30 minutes with IN H2SO4 and plates were read immediately. Absorbency readings at 450 nm ranging between 0-4 OD and using Molecular Devices plate reader and SOFTMAX PRO software.

[2] = biological target: T2, 763; design: key: 0 = <0.5 OD, 1 = 0.5-1.0 OD, 4 = 1-4 OD
T2 construct: H4-59 K4-1; also called PIN763
Excerpt: as §1, §2

[3] = biological target: T3, 631; design: key: 0 = <0.5 OD, 1 = 0.5-1.0 OD, 4 = 1-4 OD
T3 construct: H4-34 K4-1; also called PIN631
Excerpt: as §1, §2

[4] = biological target: T4, 791; design: key: 0 = <0.5 OD, 1 = 0.5-1.0 OD, 4 = 1-4 OD
T4 construct: H3-30 K4-1; also called PIN791
Excerpt: as §1, §2

[5] = biological target: T5, 1154; design: key: 0 = <0.5 OD, 1 = 0.5-1.0 OD, 4 = 1-4 OD
T5 construct: H4-61 K4-1; also called PIN1154
Excerpt: as §1, §2

[6] = biological target: T6, 1175; design: key: 0 = <0.5 OD, 1 = 0.5-1.0 OD, 4 = 1-4 OD
T6 construct: H3-53 K4-1; also called PIN1175
Excerpt: as §1, §2

[7] = biological target: T7, 987; design: key: 0 = <0.5 OD, 1 = 0.5-1.0 OD, 4 = 1-4 OD
T7 construct: H3-23 K4-1; also called PIN987
Excerpt: as §1, §2

[8] = biological target: T8, 953; design: key: 0 = <0.5 OD, 1 = 0.5-1.0 OD, 4 = 1-4 OD
T8 construct: H5-51 K4-1; also called PIN953
Excerpt: as §1, §2

[9] = biological target: T9, 610; design: key: 0 = <0.5 OD, 1 = 0.5-1.0 OD, 4 = 1-4 OD
T9 construct: H3-23 K4-1; also called PIN610
Excerpt: as §1, §2

[10] = biological target: T10, 170; design: key: 0 = <0.5 OD, 1 = 0.5-1.0 OD, 4 = 1-4 OD
T10 construct: H4-34 K4-1; also called PIN170
Excerpt: as §1, §2

[11] = biological target: T11, 518; design: key: 0 = <0.5 OD, 1 = 0.5-1.0 OD, 4 = 1-4 OD
T11 construct: H4-59 K4-1; also called PIN518
Excerpt: as §1, §2

[12] = biological target: T12, 712; design: key: 0 = <0.5 OD, 1 = 0.5-1.0 OD, 4 = 1-4 OD
T12 construct: H3-23 K4-1; also called PIN712
Excerpt: as §1, §2

[13] = biological target: T13, 792; design: key: 0 = <0.5 OD, 1 = 0.5-1.0 OD, 4 = 1-4 OD
T13 construct: H1-3 K4-1; also called PIN792
Excerpt: as §1, §2

[14] = biological target: T14, 529; design: key: 0 = <0.5 OD, 1 = 0.5-1.0 OD, 4 = 1-4 OD
T14 construct: H3-48 K4-1; also called PIN529
Excerpt: as §1, §2

[15] = biological target: T15, 786; design: key: 0 = <0.5 OD, 1 = 0.5-1.0 OD, 4 = 1-4 OD
T15 construct: H3-7 K3-15; also called PIN786
Excerpt: as §1, §2

[16] = biological target: T16, 952; design: key: 0 = <0.5 OD, 1 = 0.5-1.0 OD, 4 = 1-4 OD
T16 construct: H3-66 K4-1; also called PIN952
Excerpt: as §1, §2

[17] = biological target: T17, 1088; design: key: 0 = <0.5 OD, 1 = 0.5-1.0 OD, 4 = 1-4 OD
T17 construct: H2-5 K4-1; also called PIN1088
Excerpt: as §1, §2

[18] = biological target: T18, 591; design: key: 0 = <0.5 OD, 1 = 0.5-1.0 OD, 4 = 1-4 OD
T18 construct: H3-23 K4-1; also called PIN591
Excerpt: as §1, §2

[19] = biological target: T19, 102; design: key to grade: 0 = <0.5 OD, 1 = 0.5-1.0 OD, 4 = 1-4 OD
T19 construct: H1-18 L1-44; also called PIN102
Excerpt: as §1, §2

[20] = biological target: T20, 552; design: key to grade: 0 = <0.5 OD, 1 = 0.5-1.0 OD, 4 = 1-4 OD
T20 construct: H1-18 L2-8; also called PIN552
Excerpt: as §1, §2

Measured: grade

T1 sequence (heavy, as listed by the source): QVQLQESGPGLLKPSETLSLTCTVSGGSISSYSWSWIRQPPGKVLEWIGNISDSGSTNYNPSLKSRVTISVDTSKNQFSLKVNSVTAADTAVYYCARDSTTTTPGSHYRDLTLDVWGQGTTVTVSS

B1: mAb clone 12C3 (antibody, V domains shown)
VH: EVKLVESGGGLVQPGGSLSLSCAASGFTYTDYYMNWVRQPPGKALEWLALIRNKANGYTTEYSASLKGRFTISRDNSQSILYLQMNALRAEDSATYYCVRENINYYFDYWGQGTTLTVSS
VL: DIVLTQSPASLAVSLGQRATISCRASESVEYFGASLMQWYQQKSGQPPKLLIRAATNVESGVPARFSGSGSGTDFSLNIHPVEEDDIAMYFCQQSRKVPWTFGGGTKLEIKR
notes: Mouse hybridoma mAb, fusions 20/21 (PIN628 V regions)
not listed: [19] | [20]
4: all other assays above

B2: mAb clone 4H11 (antibody, V domains shown)
VH: EVKLVESGGGLVKPGGSLKLSCAASGFAFSNYDMSWVRQTPEKRLEWVATIRSDDSYTYYPDSVKGRFTISRDNARNTLYLQMSSLRSEDTAFYYCARREGNYAMDYWGQGTSVTVSS
VL: DIQMTQSPASLSVSVGETVTITCRASENIYSYLAWYQQKKGKSPQLLVYAATNLGDGVPTRFSGSGSGTQYSLKINSLQSEDFGSYYCQHFWGNPLTFGAGTKLELKR
notes: Mouse hybridoma mAb
4: [19] | [20]
